Ends that are not written are not given here.
What was measured:
Test in all cases: cyclic peptide substitution array
ApoC3 peptide L67C = target: T1, ApoC3 peptide L67C (human, cyclic (thioether))
T1 peptide: DKFSEFWDCDPEV
Source text: (§1) S62 and D68 of mature huApoC3 were also highly conserved; substitution of S62 by A or V, and substitution of D68 by E or P, caused decrease of spot intensities by ˜60% or higher. […] Amino acid F64 was completely variable.
(§2) Pre: staining of one of the ApoC3 peptide microarrays was done with the secondary antibody goat anti-human IgG (Fe) DyLight680 (1:5000) and control antibody mouse monoclonal anti-HA (12CA5) DyLight800 (1:2000) to investigate background interactions of the secondary antibody with the antigen-derived peptides that could interfere with the main assays. Subsequent incubation of other ApoC3 peptide microarrays with antibody samples was followed by staining with secondary and control antibodies as well as read-out at scanning intensities of 7/7 (red/green). The additional HA peptides framing the peptide arrays were stained as internal quality control to confirm the assay quality and the peptide microarray integrity.

ApoC3 peptide K60E = target: T2, ApoC3 peptide K60E (human, cyclic (thioether))
T2 peptide: DEFSEFWDLDPEV
Source text: as §1, §2

ApoC3 peptide W65E = target: T3, ApoC3 peptide W65E (human, not fully specified; cyclic (thioether))
T3 peptide: DKFSEFEDLDPEV
Source text: as §1, §2

ApoC3 peptide L67E = target: T4, ApoC3 peptide L67E (human, thioether (positions not given here); not fully specified (bridges); also: thioether between a C-terminal Cys side chain and a modified N-terminus, the Cys is not in the chain)
T4 peptide: DKFSEFWDEDPEV
Source text: as §1, §2

ApoC3 peptide K60F = target: T5, ApoC3 peptide K60F (human, cyclic (thioether))
T5 peptide: DFFSEFWDLDPEV
Source text: as §1, §2

ApoC3 peptide F64G = target: T6, ApoC3 peptide F64G (human, thioether (positions not given here); not fully specified (bridges); also: cyclic (thioether), positions not given here)
T6 peptide: DKFSEGWDLDPEV
Source text: as §1, §2

ApoC3 peptide K60H = target: T7, ApoC3 peptide K60H (human, cyclic (thioether))
T7 peptide: DHFSEFWDLDPEV
Source text: as §1, §2

ApoC3 peptide D68H = target: T8, ApoC3 peptide D68H (human, cyclic (thioether))
T8 peptide: DKFSEFWDLHPEV
Source text: as §1, §2

ApoC3 peptide D59I = target: T9, ApoC3 peptide D59I (human, thioether (positions not given here); not fully specified (C-terminus, bridges))
T9 peptide: IKFSEFWDLDPEV
Source text: as §1, §2

ApoC3 peptide S62I = target: T10, ApoC3 peptide S62I (human, thioether (positions not given here); also: cyclic (thioether), ring places not given here)
T10 peptide: DKFIEFWDLDPEV
Source text: as §1, §2

ApoC3 peptide F64I = target: T11, ApoC3 peptide F64I (human, thioether (positions not given here); not fully specified (bridges); also: cyclic (thioether), positions not given here)
T11 peptide: DKFSEIWDLDPEV
Source text: as §1, §2

ApoC3 peptide L67I = target: T12, ApoC3 peptide L67I (human, thioether (positions not given here); not fully specified (bridges); also: thioether between a C-terminal Cys side chain and a modified N-terminus, the Cys is not in the chain)
T12 peptide: DKFSEFWDIDPEV
Source text: as §1, §2

ApoC3 peptide D68I = target: T13, ApoC3 peptide D68I (human, cyclic (thioether))
T13 peptide: DKFSEFWDLIPEV
Source text: as §1, §2

ApoC3 peptide S62K = target: T14, ApoC3 peptide S62K (human, thioether (positions not given here); also: cyclic (thioether), ring places not given here)
T14 peptide: DKFKEFWDLDPEV
Source text: as §1, §2

ApoC3 peptide P69K = target: T15, ApoC3 peptide P69K (human, not fully specified; cyclic (thioether))
T15 peptide: DKFSEFWDLDKEV
Source text: as §1, §2

ApoC3 peptide V71K = target: T16, ApoC3 peptide V71K (human, thioether (positions not given here); also: cyclic (thioether), ring places not given here)
T16 peptide: DKFSEFWDLDPEK
Source text: as §1, §2

ApoC3 peptide F61M = target: T17, ApoC3 peptide F61M (human, cyclic (thioether))
T17 peptide: DKMSEFWDLDPEV
Source text: as §1, §2

ApoC3 peptide F61N = target: T18, ApoC3 peptide F61N (human, cyclic (thioether))
T18 peptide: DKNSEFWDLDPEV
Source text: as §1, §2

ApoC3 peptide D68N = target: T19, ApoC3 peptide D68N (human, cyclic (thioether))
T19 peptide: DKFSEFWDLNPEV
Source text: as §1, §2

ApoC3 peptide E63P = target: T20, ApoC3 peptide E63P (human, cyclic (thioether))
T20 peptide: DKFSPFWDLDPEV
Source text: as §1, §2

ApoC3 peptide L67P = target: T21, ApoC3 peptide L67P (human, thioether (positions not given here); not fully specified (bridges); also: thioether between a C-terminal Cys side chain and a modified N-terminus, the Cys is not in the chain)
T21 peptide: DKFSEFWDPDPEV
Source text: as §1, §2

ApoC3 peptide E70Q = target: T22, ApoC3 peptide E70Q (human, cyclic (thioether))
T22 peptide: DKFSEFWDLDPQV
Source text: as §1, §2

ApoC3 peptide D59S = target: T23, ApoC3 peptide D59S (human, thioether (positions not given here); not fully specified (C-terminus, bridges); also: cyclised via thioether between a C-terminal Cys and a modified N-terminus, the Cys and the N-terminal …)
T23 peptide: SKFSEFWDLDPEV
Source text: as §1, §2

ApoC3 peptide F64T = target: T24, ApoC3 peptide F64T (human, thioether (positions not given here); not fully specified (bridges); also: cyclic (thioether), positions not given here)
T24 peptide: DKFSETWDLDPEV
Source text: as §1, §2

ApoC3 peptide E63V = target: T25, ApoC3 peptide E63V (human, cyclic (thioether))
T25 peptide: DKFSVFWDLDPEV
Source text: as §1, §2

ApoC3 peptide D68V = target: T26, ApoC3 peptide D68V (human, not fully specified; cyclic (thioether))
T26 peptide: DKFSEFWDLVPEV
Source text: as §1, §2

ApoC3 peptide E70V = target: T27, ApoC3 peptide E70V (human, cyclic (thioether))
T27 peptide: DKFSEFWDLDPVV
Source text: as §1, §2

ApoC3 peptide D59W = target: T28, ApoC3 peptide D59W (human, thioether (positions not given here); not fully specified (C-terminus, bridges); also: cyclised via thioether between a C-terminal Cys and a modified N-terminus, the Cys and the N-terminal …)
T28 peptide: WKFSEFWDLDPEV
Source text: as §1, §2

ApoC3 peptide D68Y = target: T29, ApoC3 peptide D68Y (human, cyclic (thioether))
T29 peptide: DKFSEFWDLYPEV
Source text: as §1, §2

- % of binding to wild-type peptide (ApoC3 peptide L67C): 0%
- % of binding to wild-type peptide (ApoC3 peptide K60E): 362%
- % of binding to wild-type peptide (ApoC3 peptide W65E): 0%
- % of binding to wild-type peptide (ApoC3 peptide L67E): 0.45%
- % of binding to wild-type peptide (ApoC3 peptide K60F): 53.2%
- % of binding to wild-type peptide (ApoC3 peptide F64G): 212%
- % of binding to wild-type peptide (ApoC3 peptide K60H): 116%
- % of binding to wild-type peptide (ApoC3 peptide D68H): 0%
- % of binding to wild-type peptide (ApoC3 peptide D59I): 49.1%
- % of binding to wild-type peptide (ApoC3 peptide S62I): 0.64%
- % of binding to wild-type peptide (ApoC3 peptide F64I): 69.3%
- % of binding to wild-type peptide (ApoC3 peptide L67I): 46.9%
- % of binding to wild-type peptide (ApoC3 peptide D68I): 0%
- % of binding to wild-type peptide (ApoC3 peptide S62K): 4.05%
- % of binding to wild-type peptide (ApoC3 peptide P69K): 20.7%
- % of binding to wild-type peptide (ApoC3 peptide V71K): 91.1%
- % of binding to wild-type peptide (ApoC3 peptide F61M): 68.7%
- % of binding to wild-type peptide (ApoC3 peptide F61N): 25.9%
- % of binding to wild-type peptide (ApoC3 peptide D68N): 0%
- % of binding to wild-type peptide (ApoC3 peptide E63P): 81.2%
- % of binding to wild-type peptide (ApoC3 peptide L67P): 25.5%
- % of binding to wild-type peptide (ApoC3 peptide E70Q): 68%
- % of binding to wild-type peptide (ApoC3 peptide D59S): 57.7%
- % of binding to wild-type peptide (ApoC3 peptide F64T): 467%
- % of binding to wild-type peptide (ApoC3 peptide E63V): 4.2%
- % of binding to wild-type peptide (ApoC3 peptide D68V): 0%
- % of binding to wild-type peptide (ApoC3 peptide E70V): 57%
- % of binding to wild-type peptide (ApoC3 peptide D59W): 56.8%
- % of binding to wild-type peptide (ApoC3 peptide D68Y): 0.16%
B1: Llama antibody 5E5 (antibody, V domains shown)
VH: QLQLVESGGGLVQPGGSLRLSCAASGFTFGTYSMRWVRQVPRKALEWVSSISTDGGGTAYRDSVKGRFTISRDNAKNTLYLQMNNLKPEDTAIYYCVIAGYSDWGQGTQVTVSS
VL: ATMLTQSPGSLSVVPGESASISCKTSQGLVHSDGKTYFYWFLQKPGQSPQQLIYQVSNRASGVPDRFTGSGSGTDFTLKISGVKAEDAGVYYCAQGTYYPHTFGSGTRLEIK
notes: detected with goat anti-human IgG (Fc); also called mAb 5E5

Reference: patent publication US20190241648A1 (STATEN BIOTECHNOLOGY B V, published 2019)
